Measured values published in article PMC8065639.

Molecular target: T1, GST-PA14_51020-His (antitoxin) (Pseudomonas aeruginosa PA14) (UniProt A0A0H2Z7N8)
T1 sequence: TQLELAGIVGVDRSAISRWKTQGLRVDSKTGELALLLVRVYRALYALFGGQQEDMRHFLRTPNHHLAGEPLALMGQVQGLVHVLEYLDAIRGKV
Assay: EMSA

| Sequence | binding |
| --- | --- |
| CGGGCTGGAAGGTGGAGCGGGGAATCCGTCTGCAGGCGCCGCCTTTCTCCGATCACGAGGCTGCGCTGACCGACATCGCCGACTACCGCGCTCCCCAGGAACTGGGGAGTGCCATGCGCAGCGCCGGGGTGCAGGCATTCGAATACCGTTCGGCGCGTTGCCCGGAGCGCGGCTGCAATGTCGCCCTGTTCACGCCCGCG (double strand) [PA14_51010 coding region internal fragment] | no binding |
| GTTTTTCTCTCTATCACGCCGGTCAATGCTTGCGCGTGGTTCTCTAGGTTCGACCGAATCAAGGTGTGTTTTCAGCAAAATAATGATAGTTTGTTGTAAACACACATGAGGAGGTCGTCATGAGCGCTCTCATCAAGGAACGTCCCAGCGCCGATGCTGTCCTGGCCAAGGCCGTCCTGGCCGCGCGCGAGCAATTGGGG (double strand) [PA14_51020 upstream (operon promoter) fragment] | binds |
